We go through 1 substance from patent US20120058102A1.

The target in the assay is ZFHD-FKBP fusion with 3 copies of the drug binding domain (3xFKBP). Put plainly: cell-based or functional assay.

“FRB-TA fusion (FRB fragment of FRAP/mTOR fused to a portion of human NF-KB p65 as transcription activator)” showed a luciferase expression in mice (Xenogen imaging) after rapamycin 2 mg/kg IP, against pre-induction; Group 2, transcription factor unit under the CMV promoter of more than 2 logs and a luciferase expression in mice (Xenogen imaging) after rapamycin 2 mg/kg IP, against pre-induction; Group 4, transcription factor unit under the TBG promoter of more than 100 fold.
